Where two headings read alike, the source gives them in different places.
T1: MbpAgo WT (Mucilaginibacter paludis, UniProt H1YCU5 1-795)
T1 sequence: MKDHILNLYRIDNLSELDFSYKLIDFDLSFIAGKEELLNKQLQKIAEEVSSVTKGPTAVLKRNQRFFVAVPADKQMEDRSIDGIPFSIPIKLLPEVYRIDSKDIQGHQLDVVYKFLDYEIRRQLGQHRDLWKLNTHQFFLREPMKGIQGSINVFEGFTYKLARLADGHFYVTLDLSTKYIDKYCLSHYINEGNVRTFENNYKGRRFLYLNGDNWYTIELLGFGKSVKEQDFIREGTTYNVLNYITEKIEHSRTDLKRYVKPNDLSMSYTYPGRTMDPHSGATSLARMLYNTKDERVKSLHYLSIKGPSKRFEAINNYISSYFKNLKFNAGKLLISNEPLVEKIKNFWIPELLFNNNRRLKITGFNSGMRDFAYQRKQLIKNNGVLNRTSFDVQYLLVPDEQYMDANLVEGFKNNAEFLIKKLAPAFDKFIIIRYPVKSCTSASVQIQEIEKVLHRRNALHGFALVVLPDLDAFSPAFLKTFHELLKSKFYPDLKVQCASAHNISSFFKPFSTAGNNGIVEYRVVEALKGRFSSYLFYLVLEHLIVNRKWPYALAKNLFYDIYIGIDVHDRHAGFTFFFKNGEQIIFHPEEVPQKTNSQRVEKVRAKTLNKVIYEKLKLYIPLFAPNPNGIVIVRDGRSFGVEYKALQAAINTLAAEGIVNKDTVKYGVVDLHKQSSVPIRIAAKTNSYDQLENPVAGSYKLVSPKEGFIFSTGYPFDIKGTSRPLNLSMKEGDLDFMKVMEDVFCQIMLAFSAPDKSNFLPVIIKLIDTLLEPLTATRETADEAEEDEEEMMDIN


Columns and labels:
MbpAgo WT [1] = target: T1, MbpAgo WT; assay: EMSA
MbpAgo WT [2] = target: T1, MbpAgo WT; assay: EMSA; remark: listed apart in the source

Binder | Kd (MbpAgo WT [1]) [nM] | Kd (MbpAgo WT [2]) [nM]
TGAGGTAGTAGGTTGT (ssDNA) [T-gDNA iFAM, 5'OH] | 162 ± 4.8 | 148 ± 5.8
TGAGGTAGTAGGTTGT (ssDNA, 5' phosphate) [T-gDNA iFAM, 5'P] | 205 ± 7.6 | 111 ± 3
